Experimental data: the Immune Epitope Database (IEDB)

Key:
HLA-B*40:02 = test: IEDB peptide-MHC binding, purified MHC/competitive/radioactivity; filed as Kd, often an IC50 or EC50 that approximates it; ≥ and ≤ were set here for values at or beyond the usual limits of such assays
HLA-B*44:02 = test: as above
HLA-B*45:01 = test: as above
HLA-B*18:01 = test: as above
HLA-B*40:01 = test: as above
HLA-B*44:03 = test: as above
HLA-A*32:01 = test: as above
HLA-B*15:01 [1] = test: IEDB peptide-MHC binding, purified MHC/competitive/fluorescence; filed as Kd, often an IC50 or EC50 that approximates it; ≥ and ≤ were set here for values at or beyond the usual limits of such assays; conditions: source organism: Paracoccus denitrificans PD1222
HLA-A*26:01 = test: IEDB peptide-MHC binding, purified MHC/competitive/radioactivity; filed as Kd, often an IC50 or EC50 that approximates it; ≥ and ≤ were set here for values at or beyond the usual limits of such assays
HLA-A*29:02 = test: as above
HLA-A*01:01 [2] = test: as above
HLA-A*30:02 = test: as above
HLA-A*30:01 = test: as above
HLA-A*02:12 = test: IEDB peptide-MHC binding, purified MHC/direct/fluorescence; filed as Kd, often an IC50 or EC50 that approximates it; ≥ and ≤ were set here for values at or beyond the usual limits of such assays; conditions: source organism: Influenza C virus
HLA-B*58:01 = test: as above; conditions: source organism: Influenza A virus (A/swine/Hong Kong/273/1994(H1N1))
HLA-B*15:01 [3] = test: as above; conditions: source organism: Influenza A virus (A/swine/Hong Kong/273/1994(H1N1))
HLA-A*03:01 = test: as above; conditions: source organism: Influenza A virus (A/swine/Hong Kong/273/1994(H1N1))
HLA-A*01:01 [4] = test: as above; conditions: source organism: Influenza A virus (A/swine/Hong Kong/273/1994(H1N1))
HLA-B*27:05 = test: as above; conditions: source organism: Influenza A virus (A/swine/Hong Kong/273/1994(H1N1))
HLA-B*07:02 = test: as above; conditions: source organism: Influenza A virus (A/swine/Hong Kong/273/1994(H1N1))
[5] = source organism: Mammarenavirus brazilense
[6] = source organism: SARS coronavirus Tor2
[7] = source organism: Dengue virus 1 Singapore/S275/1990
[8] = source organism: Mammarenavirus machupoense
[9] = source organism: Mammarenavirus whitewaterense
[10] = source organism: Mammarenavirus lassaense

Sequence AENDIVEAL has a Kd (HLA-B*40:02; [5]) of 25.2 nM, a Kd (HLA-B*44:02; [5]) of 43.5 nM and a Kd (HLA-B*45:01; [5]) of 1030 nM. For the same sequence, the Kd (HLA-B*18:01; [5]) was 10800 nM, the Kd (HLA-B*40:01; [5]) was 5.87 nM and the Kd (HLA-B*44:03; [5]) was 108 nM.

Work on AEWVLAYMLF yielded a Kd (HLA-B*40:02; [6]) of 19.2 nM, a Kd (HLA-B*44:02; [6]) of 16.2 nM and a Kd (HLA-B*45:01; [6]) of 41 nM. The Kd (HLA-B*18:01; [6]) was 327 nM, the Kd (HLA-B*40:01; [6]) was 152 nM and the Kd (HLA-B*44:03; [6]) was 9.16 nM.

For AGILARWGSF, the Kd (HLA-B*44:02; [7]) was 12600 nM and the Kd (HLA-A*32:01; [7]) was 1140 nM.

With ALAAAGAAY the Kd (HLA-B*15:01 [1]) was 123 nM.

In the case of ATMANEMGF, the Kd (HLA-A*32:01; source organism: Dengue virus 2 Jamaica/1409/1983) is reported as 138 nM.

With CEEMLDNRAT the Kd (HLA-B*40:02; [6]) was 8590 nM, the Kd (HLA-B*44:02; [6]) was 560 nM and the Kd (HLA-B*45:01; [6]) was 139 nM. The Kd (HLA-B*18:01; [6]) was ≥ 46100 nM, the Kd (HLA-B*40:01; [6]) was 18300 nM and the Kd (HLA-B*44:03; [6]) was 10300 nM.

In the case of DESGLNISGY, the Kd (HLA-B*40:02; [5]) is reported as ≥ 70800 nM, the Kd (HLA-B*44:02; [5]) is reported as 12800 nM and the Kd (HLA-B*45:01; [5]) is reported as ≥ 70000 nM. For the same sequence, the Kd (HLA-B*18:01; [5]) was 199 nM, the Kd (HLA-B*40:01; [5]) was ≥ 69500 nM and the Kd (HLA-B*44:03; [5]) was 7830 nM.

DESKKEINLL was tested, and the Kd (HLA-B*40:02; [8]) was ≥ 70800 nM, the Kd (HLA-B*44:02; [8]) was ≥ 70200 nM and the Kd (HLA-B*45:01; [8]) was ≥ 70000 nM. For the same sequence, the Kd (HLA-B*18:01; [8]) was 2880 nM, the Kd (HLA-B*40:01; [8]) was ≥ 69500 nM and the Kd (HLA-B*44:03; [8]) was ≥ 70100 nM.

Sequence DIMALIVSI has a Kd (HLA-A*32:01; source organism: Vaccinia virus) of 114 nM.

DLGLLYTAKY showed a Kd (HLA-A*26:01; [9]) of 1000 nM, a Kd (HLA-A*29:02; [9]) of 386 nM and a Kd (HLA-A*01:01 [2]; [9]) of 13700 nM. For the same sequence, the Kd (HLA-A*30:02; [9]) was 36.9 nM, the Kd (HLA-A*32:01; [9]) was ≥ 69900 nM and the Kd (HLA-A*30:01; [9]) was ≥ 58400 nM.

In the case of EEAIRHVRA, the Kd (HLA-B*40:02; [6]) is reported as 5530 nM, the Kd (HLA-B*44:02; [6]) is reported as 2780 nM and the Kd (HLA-B*45:01; [6]) is reported as 39.8 nM. For the same sequence, the Kd (HLA-B*18:01; [6]) was ≥ 55700 nM, the Kd (HLA-B*40:01; [6]) was 5590 nM and the Kd (HLA-B*44:03; [6]) was 5810 nM.

Sequence EEPVALLPLS has a Kd (HLA-B*40:02; [8]) of 4410 nM, a Kd (HLA-B*44:02; [8]) of 8420 nM and a Kd (HLA-B*45:01; [8]) of 795 nM. It also gave a Kd (HLA-B*18:01; [8]) of 15500 nM, a Kd (HLA-B*40:01; [8]) of 5160 nM and a Kd (HLA-B*44:03; [8]) of 2940 nM.

For EEVVLKNGEL, the Kd (HLA-B*40:02; [6]) was 13.9 nM, the Kd (HLA-B*44:02; [6]) was 46.7 nM and the Kd (HLA-B*45:01; [6]) was 1330 nM. The Kd (HLA-B*18:01; [6]) was 381 nM, the Kd (HLA-B*40:01; [6]) was 6.33 nM and the Kd (HLA-B*44:03; [6]) was 14.8 nM.

EWIFRALKY was tested, and the Kd (HLA-A*26:01; [5]) was 7080 nM, the Kd (HLA-A*29:02; [5]) was 183 nM and the Kd (HLA-A*01:01 [2]; [5]) was ≥ 37300 nM. The Kd (HLA-A*30:02; [5]) was 7750 nM, the Kd (HLA-A*32:01; [5]) was ≥ 77800 nM and the Kd (HLA-A*30:01; [5]) was ≥ 38000 nM.

With FEVLAVEDT the Kd (HLA-B*40:02; [6]) was 1870 nM, the Kd (HLA-B*44:02; [6]) was ≥ 47900 nM and the Kd (HLA-B*45:01; [6]) was 11600 nM. For the same sequence, the Kd (HLA-B*18:01; [6]) was 3400 nM, the Kd (HLA-B*40:01; [6]) was 10900 nM and the Kd (HLA-B*44:03; [6]) was 13500 nM.

For GESVKTQFNY, the Kd (HLA-B*40:02; [6]) was 486 nM, the Kd (HLA-B*44:02; [6]) was 479 nM and the Kd (HLA-B*45:01; [6]) was 7630 nM. For the same sequence, the Kd (HLA-B*18:01; [6]) was ≥ 20100 nM, the Kd (HLA-B*40:01; [6]) was 11600 nM and the Kd (HLA-B*44:03; [6]) was 295 nM.

GMFNMLSTV was tested, and the Kd (HLA-A*02:12) was 49 nM, the Kd (HLA-B*58:01) was ≥ 20000 nM and the Kd (HLA-B*15:01 [3]) was 105 nM. The Kd (HLA-A*03:01) was ≥ 20000 nM, the Kd (HLA-A*01:01 [4]) was ≥ 20000 nM and the Kd (HLA-B*27:05) was 10100 nM. For the same sequence, the Kd (HLA-B*07:02) was ≥ 20000 nM.

IGILLTWLGL was tested, and the Kd (HLA-A*32:01; source organism: Dengue virus 1 Brazil/97-11/1997) was ≥ 38800 nM.

In the case of ILCYFILIF, the Kd (HLA-A*32:01; source organism: Vaccinia virus WR) is reported as 11500 nM.

Sequence KEAYCQEFSL has a Kd (HLA-B*40:02; [10]) of 9.68 nM, a Kd (HLA-B*44:02; [10]) of 4180 nM and a Kd (HLA-B*45:01; [10]) of 5690 nM. For the same sequence, the Kd (HLA-B*18:01; [10]) was ≥ 36900 nM, the Kd (HLA-B*40:01; [10]) was 88.3 nM and the Kd (HLA-B*44:03; [10]) was 16100 nM.

KIDFLFFII gave a Kd (HLA-A*32:01; source organism: Vaccinia virus Copenhagen) of 1.97 nM.
